The values that follow come from patent US20100278865A1.

The experiment concerns the target E2 protein of J6/JFH-1 (3×FLAG) virus particles (hepatitis C virus, J6CF strain (genotype 2a)). In words: batch capture of virus particles on M2 antibody agarose, FLAG peptide elution, HCV Core ELISA of eluates.

In turn, “anti-FLAG monoclonal antibody (M2 antibody, Sigma)” came in with a purification efficiency of 5%.
